The results in this text go back to publication PMC8347620, “Arabidopsis G-Protein β Subunit AGB1 Negatively Regulates DNA Binding of MYB62, a Suppressor in the Gibberellin Pathway”.

This series addresses T1, MBP-MYB62 (Arabidopsis thaliana, UniProt Q9C9G7 1-286).
T1 sequence: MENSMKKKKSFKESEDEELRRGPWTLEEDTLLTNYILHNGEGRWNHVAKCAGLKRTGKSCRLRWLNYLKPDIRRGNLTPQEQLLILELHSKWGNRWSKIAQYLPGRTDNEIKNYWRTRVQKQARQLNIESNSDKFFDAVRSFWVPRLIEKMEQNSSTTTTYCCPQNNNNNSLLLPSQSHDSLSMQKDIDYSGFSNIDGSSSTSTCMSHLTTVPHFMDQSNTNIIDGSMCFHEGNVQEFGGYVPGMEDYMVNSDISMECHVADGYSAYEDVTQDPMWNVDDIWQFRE
Description: EMSA; EMSA: 2.5% glycerol, 50 mM KCl, 5 mM MgCl2, 10 mM EDTA, 30 min, room temperature; pH not stated. As to conditions: protein: recombinant; tags: MBP (pMAL-c2x); label: biotin on both strands (BIO printed before each oligo); blunt. Background: A gel shift assay detects complexes by their altered migration in electrophoresis.

B1: ProGA2ox7 probe (MYB element) (dsDNA)
DNA 1: AAGCCCTTGGTTGGGGATGG
DNA 2: CCATCCCCAACCAAGGGCTT
For the molecule B1, the binding result is “binds”.
